Measurements from article PMC9405023, “NRF2 Regulates Cystathionine Gamma-Lyase Expression and Activity in Primary Airway Epithelial Cells Infected with Respiratory Syncytial Virus”.

Target: T1, recombinant NRF2 (rNRF2) (UniProt Q16236 1-605)
T1 sequence: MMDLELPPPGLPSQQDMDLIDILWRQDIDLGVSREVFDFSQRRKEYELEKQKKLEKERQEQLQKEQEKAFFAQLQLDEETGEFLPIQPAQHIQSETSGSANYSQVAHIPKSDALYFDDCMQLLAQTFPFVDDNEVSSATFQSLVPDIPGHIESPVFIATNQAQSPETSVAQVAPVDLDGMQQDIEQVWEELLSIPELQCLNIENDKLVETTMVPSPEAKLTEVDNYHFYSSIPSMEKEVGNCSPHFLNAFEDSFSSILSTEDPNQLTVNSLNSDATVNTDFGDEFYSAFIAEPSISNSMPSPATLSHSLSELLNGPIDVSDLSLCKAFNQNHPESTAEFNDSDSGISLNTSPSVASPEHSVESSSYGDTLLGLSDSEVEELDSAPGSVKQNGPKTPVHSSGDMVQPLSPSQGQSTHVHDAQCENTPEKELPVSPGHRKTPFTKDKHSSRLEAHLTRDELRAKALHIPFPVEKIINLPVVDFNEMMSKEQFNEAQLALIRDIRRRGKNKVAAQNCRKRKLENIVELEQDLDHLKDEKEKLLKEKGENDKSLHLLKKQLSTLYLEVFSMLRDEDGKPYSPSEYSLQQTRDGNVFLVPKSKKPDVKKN
Experiment: EMSA; C1 and C2 complexes; 10 mM Tris-HCl pH 8.0, 50 mM KCl, 50 mM NaCl, 1 mM MgCl2, 1 mM EDTA, 5 mM DTT, 2.5% glycerol, 0.3 ug poly dI-dC, 15 fmol probe, 6-8 ug nuclear extract, 10 uL, 15 min, room temperature
Conditions: protein: recombinant; label: 32P (probe); blunt

B1: -156/-120 CSE wild type (WT) (dsDNA)
DNA 1: CGGTCGCGGTGACGTTTCAGGCAACGCCTCTGCTGT
DNA 2: ACAGCAGAGGCGTTGCCTGAAACGTCACCGCGACCG
B1: binds.
